From the nanobody polyreactivity screen of Harvey et al. (2022)

Assay: yeast display, Sf9 membrane polyspecificity reagent, FACS + sequencing; frameworks hold sequencing errors
Outline: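 Nanobodies from a synthetic yeast display library (Saccharomyces cerevisiae BJ5465), induced 36–48 hours with galactose, were stained 1 hour at 4 °C with 10% biotinylated, detergent-solubilized Sf9 membrane reagent, enriched on streptavidin microbeads, then FACS-sorted. Anti-HA (expression) and streptavidin (reagent binding) fluorescence set low and high (top ~1%) gates. Polyreactivity labels come from the gate of origin. Genes were colony-PCR amplified, MiSeq 2 × 250 sequenced and filtered by CDR length.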

For “QVQLVESGGGLVQAGGSLRLSCAASGSTFGSYAMGWYRQAPGGERELVAAISWNGGRTYYADSVKGRFTISRDNAKNTVYLQMNSLKPEDTAVYYCAKVVKYQSGGGLEYWGQGTQVTVSS”, which “polyreactivity (PSR sort gate)” value is on record?
Its value is “high polyreactivity”.

Which “polyreactivity (PSR sort gate)” value does the source give for “QDQLVESGGGLVQEGGSLRLSCAASGRIFYFNARGWYRQAPGKERELVADISSGGRTNYADSVKGRFTFSRDNAKNSVYVQMNSEKPEDTAVYYCNSEPYTSSGGYRGYDFDYWGQGSQVTVSS” here?
The value was “low polyreactivity”.

With “QVQLVESGGGLVPAGGSLRLRCAASGYIFRQNAMGWYRQAPGKERELVAVITARGGSTYYADSVKGRFTISRDNEKNTVYLQMNSLKPEDTAVYYCNARYYRRQYRGGAYWGQGTQVTVSS” as the sequence, how does the “polyreactivity (PSR sort gate)” value read?
The value was “low polyreactivity”.

With “QVQLVESGGGLVQAGGSLRLSCAASGRTFAVYTMGWYRQAPGKERELVARIRYSGGNTYYADSVKGRFTISRENAKNTVYLQMNSLKPEDTAVYYCAARSRYRIYASRNFDYWGQGTQVTVSS” as the sequence, how does the “polyreactivity (PSR sort gate)” value read?
Its value is “high polyreactivity”.

For “QVQLVESGVGLVQAGGSLSLSCAASGSTFYKYTMGWYRQAPGKESELVAAISGSGTTTYYADSVKGRFTISRDYAKNTVFLQINSLKPEDTAVYYCAAETYSPDREYGYWGLGTQVTVSS”, which “polyreactivity (PSR sort gate)” value is on record?
The value was “high polyreactivity”.

For “QVQLVESGGGLVQAGGSLRLSCAASFYVYAMGWYRQAPGKERELVAAITYSGGGTYYADSVKGRFTISRDNAKNTVYLQMNSLKPEDTAVYYCAADDYFYDYDYWGQGTQVTVSS”, which “polyreactivity (PSR sort gate)” value is on record?
Its value is “low polyreactivity”.

With “QVQLVESGGGLVQAGGSLRLSCAASGRIFRAYAMGWYRQAPGKERELVAVITGSGGSTYYADSVKGRFTISRDNAKNTVYLQMNSLKPEDTAVYYCAAPVHTASGRWVPGYYYWGQGTQVTVSS” as the sequence, how does the “polyreactivity (PSR sort gate)” value read?
Its value is “high polyreactivity”.

For “QVQLVESGGGLVQAGGSLRLSSAASGITFRYYTMGWYRQAPGKERELVAAITWSGGSTYYADSVKGRFTISRDNAKNTVYLQMNSLKPEDTAVYYGAADSYRFRYSGYDYWGQGTQVTVSS”, which “polyreactivity (PSR sort gate)” value is on record?
The value was “high polyreactivity”.

With “QVQLVESGGGLVQAGGSLRLSCAASRSIFRSYAMGWYTQAPGKERELVAAITSSSGSTYYADSVKGRFTISRDNAKNTVYLQMNSLKPEDTAVYYCNAPYWKSRFRAYYHWGQGTQVTVSS” as the sequence, how does the “polyreactivity (PSR sort gate)” value read?
Its value is “high polyreactivity”.

For “QVQLQESGGGLVQAGGSLRLSCAASGYISTFSSEMGWYRQAPGKERELVASIAPGCTTSYADSVKGRFTISRDKAKNTVYLQMNILKPEDTAVYFCAVVYTVPASFGYWGQGTQVTVIS”, which “polyreactivity (PSR sort gate)” value is on record?
Its value is “high polyreactivity”.

With “QVQLEESGGGLVQAGGSLRLSCAASGFTFGFYAMGWYRQAPGKERELVARISYSGGSTYYADSVKGRFTISRDNAKNTVYLQMNSLKPEDTAVYYCNRGYRRLQEDYWGQGTQVTVSS” as the sequence, how does the “polyreactivity (PSR sort gate)” value read?
The value was “high polyreactivity”.

With “QVQHVESGGGLLQAGGSLRLSCAASGITFFEYAMGWYRQAPGKERELVAVITSVGSTNYADSVKGRFTISRDNAKNTVYLQMNSLKPVDTAVYYCNARLVKYRWWYDYYYWGQGTQVTVSS” as the sequence, how does the “polyreactivity (PSR sort gate)” value read?
The value was “low polyreactivity”.

Which “polyreactivity (PSR sort gate)” value does the source give for “QVHLEESGGGLVQAGGSLRLRCAASGFTFGHYTMGWYRQAPGKERELVAAITWRGGTYYADSVKGRFTISRDNAKNTVYLQMNSLKPEDTAVYYCNARFGQTVKGTYGRYYYWGQGTQVTVSS” here?
The value was “high polyreactivity”.

For “QDQHVESGGGLVQAGGSLPLSCADSGSIFPRNAMGWYRQAPGKERELVAAISRIGGSTYYADAVKGRFTISRDNAKNTVYLQMNSLKPEDTAVYYCAAPPSEWQHDYWGQGTQVTVSS”, which “polyreactivity (PSR sort gate)” value is on record?
The value was “low polyreactivity”.

Which “polyreactivity (PSR sort gate)” value does the source give for “QVQLVESGGGLVQAGGSLRLSSAPSGNTFYWYVMGWYRHAPGKERELVARINSSGGTTNYADSVKGRFTISRDNAKNTVYFQMNSLKPEVTAVYYCAADDIYLYGGGTDYYFCGQGTQVTVSS” here?
The value was “low polyreactivity”.

For “QVQLVESGGGLVQAGGSLRLSCAASGRIIGRYAMGWYRQAPGKERELVAGITIRGGSTYYADSVKGRFTISRDNAKNTVYLQMNSLKPEDTAVYYCAARHGSGFRYYPGHAGGYWGQGTQVTVSS”, which “polyreactivity (PSR sort gate)” value is on record?
Its value is “low polyreactivity”.

With “QVQLVESGGGLVQAGGSLRLSSAASGSIFTYYAMGGYRQAPGKEREFVAGISWSGGRTYYADSVKARFTISRDNAKNTGYLQMNSLKPEDTAVYYCNRQYRYIPSPFDYGGQGTQVTVSS” as the sequence, how does the “polyreactivity (PSR sort gate)” value read?
The value was “low polyreactivity”.

For “HDQLVESGGGLVQAGGSLRLSCAASGFTFYRNAMGWYRQAPGQERELVAAITRGGSTTYADSVKGRFTISRANAKNTVYLQMISLKPDDTAVYYSAKVARADVPGYYKYYYWGQGTQVTVSS”, which “polyreactivity (PSR sort gate)” value is on record?
The value was “high polyreactivity”.

Which “polyreactivity (PSR sort gate)” value does the source give for “QVQLVESGGGLVQAGGSLRLSCAASGRNFSGNTMGWYRQAPGKERELVAAITGRGGSTYYADSVKGRFTISRDNAKNTVYLQMNSLKPEDNAVYYCAALRYTFAGRFDYWGQGTQVTVSS” here?
The value was “high polyreactivity”.

For “QVQLVESGGGLVQAGGSLRLSCAASGSTFFKYDMGWYRQAPGKDRELVAVITWSGGTTFYADSVKGRFTFSRDNAKNTVYLQMNSLKPEDTAVYYGAADYYGYRYDYWGQGTQVTVSS”, which “polyreactivity (PSR sort gate)” value is on record?
Its value is “low polyreactivity”.

For “QVQLVESGGGLVQAGGSLRLSCAASGRTFSYYAMGWYRQAPGKEREFVAAISSTGTSTYYADSVKGRFTISRDNAKNTFSLQMNRLKPEDTAVYYCNARVATYRLHSKFYYWGQGTQVTVSS”, which “polyreactivity (PSR sort gate)” value is on record?
The value was “high polyreactivity”.

For “QVQLVESGGGLVQAGGSLRLSCAASGIIIYRYVMGWYRPAPGKERELVASISSSGGRTHYADSVKGRFTISRDNAKNTVYLQMNSLKPEDTAVYYCAAVQRSSFYRRYDYWGQGTQVTVSS”, which “polyreactivity (PSR sort gate)” value is on record?
The value was “high polyreactivity”.
